Data from patent publication US20170037111A1, “Novel peptides and combination of peptides for use in immunotherapy against ovarian cancer and other cancers” (immatics biotechnologies GmbH, priority 2015, published 2017).

Target: HLA-A*02:01 (Homo sapiens, UniProt P04439, D140Y/D185E/D98H/E176V/E277Q/G131W/G231S/I119V/I121R/I166T/I218V/L300P/L318F/N151K/N90K/P208A/P217A/Q86G/Q94H/R138H/R169H/T345S)
Assay: MHC binding assay (UV-ligand exchange, β2m ELISA, peptide exchange yield)
Details: MHC class I binding score; binding to HLA-A*02:01 ranged by peptide exchange yield (UV-ligand exchange, β2m ELISA)
Outline: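 Peptide–HLA-A*02:01 complexes were formed by UV-mediated exchange of a UV-cleavable ligand for the test peptide. Exchange yield was measured by capturing complexes on streptavidin, detecting with HRP anti-β2m antibody (1 h, 37°C) and reading TMB absorbance at 450 nm.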

Substance | Peptide exchange
448 (NLLETKLQL; listed as Homo sapiens) [compound 448] | ″+++″ (≧50% = +++)
450 (FMIDASVHPTL; listed as Homo sapiens) [compound 450] | ″+++″ (≧50% = +++)
451 (LLLLDTVTMQV; listed as Homo sapiens) [compound 451] | ″++″ (≧20% = ++)
456 (LLIGHLERV; listed as Homo sapiens) [compound 456] | ″+++″ (≧50% = +++)
462 (KLAKQPETV; listed as Homo sapiens) [compound 462] | ″+++″ (≧50% = +++)
464 (ALNDCIYSV; listed as Homo sapiens) [compound 464] | ″+++″ (≧50% = +++)
466 (VLIANLEKL; listed as Homo sapiens) [compound 466] | ″++++″ (≧75% = ++++)
472 (KLLEVSDDPQV; listed as Homo sapiens) [compound 472] | ″+++″ (≧50% = +++)
474 (YLDPALELGPRNV; listed as Homo sapiens) [compound 474] | ″+++″ (≧50% = +++)
475 (LLLNEEALAQI; listed as Homo sapiens) [compound 475] | ″+++″ (≧50% = +++)
476 (ALMERTGYSMV; listed as Homo sapiens) [compound 476] | ″+++″ (≧50% = +++)
480 (ALLEDSCHYL; listed as Homo sapiens) [compound 480] | ″+++″ (≧50% = +++)
481 (GLIEDYEALL; listed as Homo sapiens) [compound 481] | ″+++″ (≧50% = +++)
484 (SLIEKVTQL; listed as Homo sapiens) [compound 484] | ″+++″ (≧50% = +++)
485 (NVPDSFNEV; listed as Homo sapiens) [compound 485] | ″+++″ (≧50% = +++)
486 (AVMESIQGV; listed as Homo sapiens) [compound 486] | ″+++″ (≧50% = +++)
487 (LLINSVFHV; listed as Homo sapiens) [compound 487] | ″+++″ (≧50% = +++)
491 (GLNDRSDAV; listed as Homo sapiens) [compound 491] | ″++″ (≧20% = ++)
493 (GLLGEKTQDLIGV; listed as Homo sapiens) [compound 493] | ″+++″ (≧50% = +++)
495 (FIFSEKPVFV; listed as Homo sapiens) [compound 495] | ″+++″ (≧50% = +++)

Substance | Peptide exchange
497 (GLLEKLTAI; listed as Homo sapiens) [compound 497] | ″+++″ (≧50% = +++)
498 (KLWTGGLDNTV; listed as Homo sapiens) [compound 498] | ″+++″ (≧50% = +++)
501 (LLDPNVKSIFV; listed as Homo sapiens) [compound 501] | ″+++″ (≧50% = +++)
503 (SLNHFTHSV; listed as Homo sapiens) [compound 503] | ″+++″ (≧50% = +++)
504 (GLSDGNPSL; listed as Homo sapiens) [compound 504] | ″++″ (≧20% = ++)
505 (SLAPGDVVRQV; listed as Homo sapiens) [compound 505] | ″++″ (≧20% = ++)
506 (KLLGKVETA; listed as Homo sapiens) [compound 506] | ″+++″ (≧50% = +++)
508 (ILAQEQLVVGV; listed as Homo sapiens) [compound 508] | ″+++″ (≧50% = +++)
510 (KLYSVVSQL; listed as Homo sapiens) [compound 510] | ″++″ (≧20% = ++)
512 (SLSEIVPCL; listed as Homo sapiens) [compound 512] | ″+++″ (≧50% = +++)
513 (SLWPSPEQL; listed as Homo sapiens) [compound 513] | ″++″ (≧20% = ++)
516 (AVGPASILKEV; listed as Homo sapiens) [compound 516] | ″++″ (≧20% = ++)
519 (GLLHLTLLL; listed as Homo sapiens) [compound 519] | ″+++″ (≧50% = +++)
521 (MLLTKLPTI; listed as Homo sapiens) [compound 521] | ″+++″ (≧50% = +++)
522 (TLWYRSPEV; listed as Homo sapiens) [compound 522] | ″++″ (≧20% = ++)
523 (YQIPRTFTL; listed as Homo sapiens) [compound 523] | ″++″ (≧20% = ++)
526 (RLAEVGQYEQV; listed as Homo sapiens) [compound 526] | ″++″ (≧20% = ++)
537 (TLAPGEVLRSV; listed as Homo sapiens) [compound 537] | ″+++″ (≧50% = +++)
538 (LLLAHIIAL; listed as Homo sapiens) [compound 538] | ″++″ (≧20% = ++)

Continued, values first:

Peptide exchange | Substance
″++″ (≧20% = ++) | 447 (QLVPALAKV; listed as Homo sapiens) [compound 447]
″+++″ (≧50% = +++) | 449 (KLAEGLDIQL; listed as Homo sapiens) [compound 449]
″+++″ (≧50% = +++) | 452 (ILLEHGADPNL; listed as Homo sapiens) [compound 452]
″++″ (≧20% = ++) | 453 (KLLEATSAV; listed as Homo sapiens) [compound 453]
″++″ (≧20% = ++) | 455 (SLLKEPQKVQL; listed as Homo sapiens) [compound 455]
″+++″ (≧50% = +++) | 457 (SLLPGNLVEKV; listed as Homo sapiens) [compound 457]
″++″ (≧20% = ++) | 458 (SLIDKLYNI; listed as Homo sapiens) [compound 458]
″++″ (≧20% = ++) | 459 (ALITEVVRL; listed as Homo sapiens) [compound 459]
″++″ (≧20% = ++) | 461 (VMFRTPLASV; listed as Homo sapiens) [compound 461]
″+++″ (≧50% = +++) | 465 (QLCDLNAEL; listed as Homo sapiens) [compound 465]
″+++″ (≧50% = +++) | 467 (FLAKDFNFL; listed as Homo sapiens) [compound 467]
″+++″ (≧50% = +++) | 468 (YLRSVGDGETV; listed as Homo sapiens) [compound 468]
″+++″ (≧50% = +++) | 469 (YLASDEITTV; listed as Homo sapiens) [compound 469]
″+++″ (≧50% = +++) | 471 (YLYNNMIAKI; listed as Homo sapiens) [compound 471]
″+++″ (≧50% = +++) | 473 (AMATESILHFA; listed as Homo sapiens) [compound 473]
″+++″ (≧50% = +++) | 477 (ALLPASGQIAL; listed as Homo sapiens) [compound 477]
″+++″ (≧50% = +++) | 478 (YLLHEKLNL; listed as Homo sapiens) [compound 478]
″+++″ (≧50% = +++) | 479 (SLFGNSGILENV; listed as Homo sapiens) [compound 479]
″+++″ (≧50% = +++) | 488 (FLAEDPKVTL; listed as Homo sapiens) [compound 488]

Peptide exchange | Substance
″+++″ (≧50% = +++) | 490 (FLLQHVQEL; listed as Homo sapiens) [compound 490]
″+++″ (≧50% = +++) | 492 (SLFDGFADGLGV; listed as Homo sapiens) [compound 492]
″++″ (≧20% = ++) | 494 (ALQPEPIKV; listed as Homo sapiens) [compound 494]
″+++″ (≧50% = +++) | 496 (FLVEKQPPQV; listed as Homo sapiens) [compound 496]
″+++″ (≧50% = +++) | 500 (SLMEDQVLQL; listed as Homo sapiens) [compound 500]
″+++″ (≧50% = +++) | 502 (RLLAQVPGL; listed as Homo sapiens) [compound 502]
″+++″ (≧50% = +++) | 507 (KLIDDQDISISL; listed as Homo sapiens) [compound 507]
″+++″ (≧50% = +++) | 509 (FLFDTKPLIV; listed as Homo sapiens) [compound 509]
″+++″ (≧50% = +++) | 514 (ILVDWLVQV; listed as Homo sapiens) [compound 514]
″+++″ (≧50% = +++) | 515 (LLQELVLFL; listed as Homo sapiens) [compound 515]
″+++″ (≧50% = +++) | 517 (LLMPIPEGLTL; listed as Homo sapiens) [compound 517]
″+″ (≧10% = +) | 520 (LAVHPSGVAL; listed as Homo sapiens) [compound 520]
″++″ (≧20% = ++) | 524 (ALIENLTHQI; listed as Homo sapiens) [compound 524]
″+++″ (≧50% = +++) | 525 (VLLEAGEGLVTI; listed as Homo sapiens) [compound 525]
″++++″ (≧75% = ++++) | 527 (FLLEPGNLEV; listed as Homo sapiens) [compound 527]
″+++″ (≧50% = +++) | 528 (SVAEGRALMSV; listed as Homo sapiens) [compound 528]
″+++″ (≧50% = +++) | 529 (LLADELITV; listed as Homo sapiens) [compound 529]
″+++″ (≧50% = +++) | 530 (VMYADIGGMDI; listed as Homo sapiens) [compound 530]
″+++″ (≧50% = +++) | 531 (YTLPIASSIRL; listed as Homo sapiens) [compound 531]
